Read-outs that look alike come from different tables or passages of the source.
Assays:
BN2/GRP receptors = target: T1, BN2/GRP receptors (Homo sapiens, UniProt P30550); experiment: Apparent receptor affinity (IC50), displacement of ^99mTc-BN(7-14) on whole PC-3 cells; type: binding
T1 construct: Since IC50 determination was done on whole PC-3 cells; endogenous in cells; host or cells: PC-3 cells (human prostate carcinoma)
Procedure: Material & Methods: PC-3 cells at confluence were placed in 48-well plates and left to attach overnight. […] After 1 h incubation at 37°C, the cells were twice washed with cold PBS and solubilized by adding 400 μl (2 x) of 1 N NaOH at 37°C. The bound radioactivity was measured in the gamma counter. The experiments were performed in triplicate.

[1] = cited from earlier work; for GI uptake: HPLC purified
Procedure: The biodistribution data, in which 0.002 nmol of ^177Lu-AMBA and ^177Lu-DOTA-8-AOC-BN(7–14) (HPLC purified) was injected per mouse [23], and the data of ^177Lu-DOTA-PESIN (0.2 nmol peptide) [25] were compared with our biodistribution data, in which 0.075 nmol of the ^177Lu-labelled BN analogues were injected. This 0.075 nmol is the nearest possible approximation to the 0.002 nmol without HPLC purification, which is desired in clinics.

PC-3 xenografts = settings: ref [24]; cited from earlier work
Description: Comparing our study with the therapy studies with ^177Lu-AMBA [23], ^177Lu-DOTA-PESIN [25] (2 × 28 MBq, 0.2 nmol) and ^177Lu-DOTA-8-AOC-BN(7–14), we found the tumour growth inhibition with our PEGylated BN analogue to be lower than with AMBA (approximately 73% vs. approximately 82%) but higher than with DOTA-PESIN (approximately 73% vs. approximately 45%) and roughly the same as with ^177Lu-DOTA-8-AOC-BN(7–14) (approximately 73% vs. approximately 79%) 3 weeks after the first dose. However, such a comparison is not fully conclusive since these therapy studies differ in tumour size at ...

[2] = cited from earlier work
[3] = Metabolic stability in human plasma; type: in vitro ADME; settings: 37 °C
Procedure: The labelled analogues were incubated with human plasma (final concentration, 10 MBq/0.6 ml) at 37 °C for various time intervals up to 12 days. After incubation, proteins were precipitated with acetonitrile/ethanol (1:1) and TFA (0.1%) and then centrifuged. The supernatant was analysed with RP-high-performance liquid chromatography (HPLC) equipped with a radioactivity detector. […] The experiments were performed two times.

[4] = Biodistribution in nude mice bearing PC-3 tumour xenografts; settings: female, CD-1 nu/nu, mouse, in vivo, iv, total radioactivity; for tissue uptake at 1 h / tissue uptake at 24 h: 0.3 MBq/0.075 nmol i.v., mean ± SD
Procedure: All animal experiments were conducted in compliance with the Swiss animal protection laws and with the ethical principles and guidelines for scientific animal experimentation established by the Swiss Academy of Natural Sciences. Biodistribution studies were performed with 6- to 8-week-old female CD-1 nu/nu mice (20 to 25 g) purchased from Charles River Laboratories (Sulzfeld, Germany). For the induction of tumour xenografts, each mouse received subcutaneously 8 × 10^6 PC-3 cells in 150 μl culture medium without supplements. The tumours were allowed to grow for at least 3 weeks. On the day of the experiment, the mice (3 to 6 per group) received the radioactive conjugates intravenously. […] Receptor-blocking studies were performed using 100 μg of unlabelled BN(1–14) co-injected with the corresponding radiolabelled BN analogue. At 1, 4 and 24 h post injection (p.i.), the animals were euthanised and dissected. Blood, tumours and various healthy tissues and organs were collected, weighed and examined for radioactivity. Results are expressed as percentage of injected dose per gram of tissue (% ID/g).

[5] = Octanol/PBS partition coefficient (log D); type: physicochemical; settings: shake-flask 1-octanol/PBS (1:1), pH 7.4, 30 kBq, vortex 1 min, centrifuged, gamma counter, sextuplicate, mean ± SD
Procedure: Material & Methods: The octanol/PBS partition coefficients were determined at pH 7.4. Five μl containing 30 kBq of the radiolabelled compounds in phosphate buffered saline (PBS) were added to a vial which contained 1.2 ml of 1-octanol and PBS (1:1). After vortexing for 1 min, the vial was centrifuged (5 min, 10 000 rpm) to ensure complete separation of layers. Then, 40 μl of each layer were taken in a preweighed vial and measured in a gamma counter (Packard Canberra Cobra II, Meriden, USA). Counts per weight unit of sample were calculated and log D values were determined as described by Pillarsetty et al. using the formula log10D=log10 (counts in 1 g of octanol/counts in 1 g of PBS). The experiments were performed in sextuplicate.

[6] = 1 h p.i., 0.002 nmol per mouse, ref [23]
[7] = 24 h p.i., 0.002 nmol per mouse, ref [23]

T1 sequence (P30550 whole entry): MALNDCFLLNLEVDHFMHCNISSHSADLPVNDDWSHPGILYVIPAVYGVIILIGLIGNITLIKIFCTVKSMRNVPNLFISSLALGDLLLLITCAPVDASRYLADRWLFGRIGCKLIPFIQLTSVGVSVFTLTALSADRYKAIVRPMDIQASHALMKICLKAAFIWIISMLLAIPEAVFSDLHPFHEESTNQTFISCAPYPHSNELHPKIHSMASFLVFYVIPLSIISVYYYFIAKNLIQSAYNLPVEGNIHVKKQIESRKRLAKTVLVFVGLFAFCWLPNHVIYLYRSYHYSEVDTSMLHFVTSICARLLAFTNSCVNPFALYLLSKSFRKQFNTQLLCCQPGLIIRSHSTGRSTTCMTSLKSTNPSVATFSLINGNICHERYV

In the case of `CCCC[C@H](NC(=O)[C@H](CC1CCCCC1)NC(=O)[C@H](Cc1c[nH]cn1)NC(=O)CNC(=O)[C@@H](NC(=O)[C@H](C)NC(=O)[C@H](Cc1c[nH]c2ccccc12)NC(=O)[C@H](CCC(N)=O)NC(=O)CCNC(=O)CCNC(=O)CC(CCCCN)NC(=O)CN1CCN(CC(=O)O)CCN(CC(=O)O)CCN(CC(=O)O)CC1)C(C)C)C(N)=O` (stereo partly drawn) [DOTA-Lys-BN, DOTA-β^3hLys-βAla-βAla-Gln^7-Trp^8-Ala^9-Val^10-Gly^11-His^12-Cha^13-Nle^14-NH2], the IC50 (BN2/GRP receptors) is reported as 2.03 ± 0.42 nM.

For “DOTA-8-AOC-BN(7–14)NH2 [^177Lu-DOTA-8-AOC-BN(7–14)]”, the GI uptake [1, 6] is given as 9.7 %ID, the tumour uptake [1, 6] is given as 2.84 ± 1.65 % ID/g and the GI uptake [1, 7] is given as 1.7 % ID. The “tumour growth inhibition 3 weeks after the first dose” value (PC-3 xenografts) was “approximately 79%”.

For “DOTA-15-amino-4,7,10,13-tetraoxapentadecanoic acid-Gln-Trp-Ala-Val-Gly-His-Leu-Met-NH2 [^177Lu-DOTA-PESIN]”, the “half-life (t1/2) in human plasma” value ([2]; ref [25]) is given as 8.4 h, the kidney uptake ([1]; 1 h p.i., 0.2 nmol peptide, Gelofusine and polyglutamic acid co-administered, ref [25]) is given as 3.8 ± 0.34 %ID/g and the tumour uptake ([1]; 1 h p.i., 0.2 nmol peptide, ref [25]) is given as 11.6 ± 1.4 %ID/g.

With `CCCC[C@H](NC(=O)[C@H](CC1CCCCC1)NC(=O)[C@H](Cc1c[nH]cn1)NC(=O)CNC(=O)[C@@H](NC(=O)[C@H](C)NC(=O)[C@H](Cc1c[nH]c2ccccc12)NC(=O)[C@H](CCC(N)=O)NC(=O)CCNC(=O)CCNC(=O)CC(CCCCN)NC(=O)CN1CCN(CC(=O)O)CCN(CC(=O)O)CCN(CC(=O)O)CC1)C(C)C)C(N)=O` (stereo partly drawn) [^177Lu-DOTA-Lys-BN, metal not drawn] the remaining at 120 h, 10 MBq/0.6 ml ([3]; 10 MBq/0.6 ml, 5 days, precipitation acetonitrile/ethanol (1:1) + 0.1% TFA, RP-HPLC radioactivity detector, performed two times, mean ± SD, read-out: remained intact after 5 days) was 13.8 ± 5.7%, the half-life at 10 MBq/0.6 ml ([3]; 10 MBq/0.6 ml, up to 12 days, RP-HPLC radioactivity detector, performed two times, mean ± SD) was 28.8 h and the “half-life (t1/2) in human plasma” value ([3]; in vitro, as printed in hours in the discussion) was 28.8 h. For the same molecule, the tissue uptake at 1 h ([4]; 1 h p.i. blocked, 100 μg unlabelled BN(1–14) co-injected, n = 3 to 4, read-out: Colon uptake, blocked) was 0.36 ± 0.07 %ID/g, the tissue uptake at 1 h ([4]; 1 h p.i. blocked, 100 μg unlabelled BN(1–14) co-injected, n = 3 to 4, read-out: Pancreas uptake, blocked) was 0.49 ± 0.22 %ID/g and the tissue uptake at 1 h ([4]; 1 h p.i. blocked, 100 μg unlabelled BN(1–14) co-injected, n = 3 to 4, read-out: Tumour uptake, blocked) was 0.55 ± 0.03 %ID/g. It also gave a tissue uptake at 1 h ([4]; 1 h p.i., n = 3 to 4, read-out: Blood uptake) of 0.24 ± 0.07 %ID/g, a tissue uptake at 1 h ([4]; 1 h p.i., n = 3 to 4, read-out: Bone uptake) of 0.36 ± 0.24 %ID/g and a tissue uptake at 1 h ([4]; 1 h p.i., n = 3 to 4, read-out: Colon uptake) of 1.64 ± 0.4 %ID/g. The tissue uptake at 1 h ([4]; 1 h p.i., n = 3 to 4, read-out: Heart uptake) was 0.14 ± 0.06 %ID/g, the tissue uptake at 1 h ([4]; 1 h p.i., n = 3 to 4, read-out: Kidneys uptake) was 2.86 ± 0.63 %ID/g and the tissue uptake at 1 h ([4]; 1 h p.i., n = 3 to 4, read-out: Liver uptake) was 0.26 ± 0.09 %ID/g. The tissue uptake at 1 h ([4]; 1 h p.i., n = 3 to 4, read-out: Lung uptake) was 0.36 ± 0.08 %ID/g, the tissue uptake at 1 h ([4]; 1 h p.i., n = 3 to 4, read-out: Muscle uptake) was 0.2 ± 0.24 %ID/g and the tissue uptake at 1 h ([4]; 1 h p.i., n = 3 to 4, read-out: Pancreas uptake) was 8.68 ± 1.95 %ID/g. For the same molecule, the tissue uptake at 1 h ([4]; 1 h p.i., n = 3 to 4, read-out: Small intestine uptake) was 1.38 ± 0.41 %ID/g, the tissue uptake at 1 h ([4]; 1 h p.i., n = 3 to 4, read-out: Spleen uptake) was 0.42 ± 0.12 %ID/g and the tissue uptake at 1 h ([4]; 1 h p.i., n = 3 to 4, read-out: Stomach uptake) was 0.72 ± 0.19 %ID/g. It also gave a tissue uptake at 1 h ([4]; 1 h p.i., n = 3 to 4, read-out: Tumour uptake) of 1.88 ± 0.47 %ID/g, a tissue to tissue ratio at 24 h ([4]; 24 h p.i., 0.075 nmol, read-out: tumour-to-liver ratio) of 5.9 and a tissue uptake at 24 h ([4]; 24 h p.i., n = 3 to 4, read-out: Bone uptake) of 0.02 ± 0.01 %ID/g. For the same molecule, the tissue uptake at 24 h ([4]; 24 h p.i., n = 3 to 4, read-out: Colon uptake) was 0.36 ± 0.09 %ID/g, the tissue uptake at 24 h ([4]; 24 h p.i., n = 3 to 4, read-out: Heart uptake) was 0.01 ± 0.01 %ID/g and the tissue uptake at 24 h ([4]; 24 h p.i., n = 3 to 4, read-out: Kidneys uptake) was 1.41 ± 0.14 %ID/g. It also gave a tissue uptake at 24 h ([4]; 24 h p.i., n = 3 to 4, read-out: Liver uptake) of 0.09 ± 0.02 %ID/g, a tissue uptake at 24 h ([4]; 24 h p.i., n = 3 to 4, read-out: Lung uptake) of 0.02 ± 0.01 %ID/g and a tissue uptake at 24 h ([4]; 24 h p.i., n = 3 to 4, read-out: Muscle uptake) of 0.01 %ID/g. For the same molecule, the tissue uptake at 24 h ([4]; 24 h p.i., n = 3 to 4, read-out: Pancreas uptake) was 4.27 ± 0.85 %ID/g, the tissue uptake at 24 h ([4]; 24 h p.i., n = 3 to 4, read-out: Small intestine uptake) was 0.16 ± 0.03 %ID/g and the tissue uptake at 24 h ([4]; 24 h p.i., n = 3 to 4, read-out: Spleen uptake) was 0.18 ± 0.04 %ID/g. The tissue uptake at 24 h ([4]; 24 h p.i., n = 3 to 4, read-out: Stomach uptake) was 0.1 ± 0.02 %ID/g, the tissue uptake at 24 h ([4]; 24 h p.i., n = 3 to 4, read-out: Tumour uptake) was 0.54 ± 0.3 %ID/g and the logD [5] was -2.18 ± 0.07.

For “DO3A-CH2CO-8-aminooctanoyl-Gln-Trp-Ala-Val-Gly-His-Leu-Met-NH2 [^177Lu-AMBA]”, the “half-life (t1/2) in human plasma” value ([2]; ref [23]) is given as 38.8 h, the GI uptake [1, 6] is given as 11.2 %ID and the tumour uptake [1, 6] is given as 6.35 ± 2.23 % ID/g. For the same molecule, the GI uptake [1, 7] was 5.8 % ID.

Reference: publication PMC3478187, “PEGylation, increasing specific activity and multiple dosing as strategies to improve the risk-benefit profile of targeted radionuclide therapy with ^177Lu-DOTA-bombesin analogues” (EJNMMI Research, 2012)
